Data on 1 molecule can be found in article doi:10.1101/2024.12.09.627393 (bioRxiv, 2024).

This test has as its target T1, histone H4K5acK8acK12acK16ac residues 1–23 peptide (dCypher) (UniProt P62805 2-24, acetyl-lysine at 5, 8, 12 and 16).
T1 construct: histone H4 residues 1-23; also called H4Tetra^ac
Put plainly: AlphaScreen or HTRF; dCypher: GST-CECR2-BRD titrated against histone peptides (100 nM); glutathione Acceptor and streptavidin Donor beads; 50 mM Tris pH 7.5, 50 mM NaCl, 0.01% Tween-20, 0.01% BSA, 1 mM TCEP, 0.0004% Poly-L-Lysine; room temperature; relative EC50 (EC50^rel). Conditions: both partners purified. In general terms: Alpha assays give light when donor and acceptor beads are brought close together.

B1: GST-CECR2-BRD (GST tag retained, for dCypher assays) (domain or fragment)
chain: not shown
notes: human CECR2 bromodomain, amino acids 424-538 of UniProt Q9BXF3-1, codon optimized for E. coli, in pGEX-6P-1; PreScission Protease site between GST and the bromodomain; source: E. coli BL21(DE3) pLysS, purified (glutathione agarose, eluted with reduced glutathione, dialysed); not shown: GST, N-terminal, kept
In turn, B1 gave an EC50 of 7.2 nM.

What is called EC50 is the midpoint of the concentration-response curve.
